Data published in paper PMC4223295, “Crystal Structure of the Bacillus subtilis Phosphodiesterase PhoD Reveals an Iron and Calcium-containing Active Site” (The Journal of Biological Chemistry, 2014).

T1: PhoD (mPhoD) (Bacillus subtilis, UniProt P42251)
T1 sequence (P42251 57-583): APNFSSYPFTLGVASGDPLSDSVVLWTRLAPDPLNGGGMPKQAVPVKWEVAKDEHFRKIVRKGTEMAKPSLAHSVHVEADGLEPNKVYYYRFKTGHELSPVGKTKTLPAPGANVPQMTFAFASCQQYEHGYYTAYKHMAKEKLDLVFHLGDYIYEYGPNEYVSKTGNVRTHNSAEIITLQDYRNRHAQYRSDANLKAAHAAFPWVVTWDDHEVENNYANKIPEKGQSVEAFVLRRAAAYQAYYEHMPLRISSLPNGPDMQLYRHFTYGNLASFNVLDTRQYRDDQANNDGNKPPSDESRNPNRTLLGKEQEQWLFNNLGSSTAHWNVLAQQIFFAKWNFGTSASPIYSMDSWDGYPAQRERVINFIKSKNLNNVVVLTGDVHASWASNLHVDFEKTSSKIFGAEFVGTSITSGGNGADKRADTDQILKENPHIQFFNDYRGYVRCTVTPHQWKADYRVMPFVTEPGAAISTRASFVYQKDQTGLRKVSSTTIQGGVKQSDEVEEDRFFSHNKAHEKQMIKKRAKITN

B1: PhoD (mPhoD) (Bacillus subtilis subsp. subtilis str. 168) (protein)
chain: T1 sequence (P42251 57-583)
notes: mature domain, signal peptide removed; N-terminal Strep-SUMO tag cleaved by Ulp1; E. coli BL21(DE3) cytoplasm

How the values were obtained:
PhoD (mPhoD) = target: T1, PhoD (mPhoD); details: crystallised at pH 5.6 with phosphate; active site, coordinates Fe3+ and two Ca2+ ions; proposed product complex
purified protein = substrate: O=[N+]([O-])c1ccc(OP(=O)(O)O)cc1; assay: purified protein; format: biochemical, Bacillus subtilis; details: pH 8.0, 25 °C, 100 mM Tris-HCl, 2 mM CaCl2, Ca2+-supplemented enzyme

Row | Molecule | X-ray crystal structure, 2 Å (PhoD (mPhoD)) | Km (purified protein) | kcat (purified protein)
1 | O=P(O)(O)O [phosphate] | the structure contains a phosphate molecule bound at the active site | – | –
2 | B1 | – | 50 µM | 1.2 s⁻¹
